T1: Bob1 (B cell Oct binding protein 1, gene POU2AF1) peptide on HLA-B*07:02 (human)
T1 peptide: APAPTAVVL

T2: Bob1 (B cell Oct binding protein 1, gene POU2AF1) peptide on HLA-A*02:01 (human)
T2 peptide: YALNHTLSV


Legend:
[1] = target: T1, Bob1 (B cell Oct binding protein 1, …); test: multimer staining
HLA-B*0702 = target: T3, HLA-B*0702 (human); test: polypeptides eluted from HLA of HLA-typed EBV-LCLs (HLA elution database); allele as in Table 1
T3 construct: HLA class I molecule on HLA-typed EBV-LCLs from which the polypeptides were eluted; also called HLA-B7

[2] = target: T2, Bob1 (B cell Oct binding protein 1, …); test: multimer staining
HLA-A*0201 = target: T4, HLA-A*0201 (human); test: polypeptides eluted from HLA of HLA-typed EBV-LCLs (HLA elution database); allele as in Table 1
T4 construct: HLA class I molecule on HLA-typed EBV-LCLs from which the polypeptides were eluted; also called HLA-A2

Binder | binding result (HLA-B*0702) | also measured
TCR of T cell clone 4G11 (TCR-4G11) (TCR, V domains shown) Valpha: GENVEQHPSTLSVQEGDSAVIKCTYSDSASNYFPWYKQELGKGPQLIIDIRSNVGEKKDQRIAVTLNKTAKHFSLHITETQPEDSAVYFCAASKGSSNTGKLIFGQGTTLQVKP Vbeta: DTEVTQTPKHLVMGMTNKKSLKCEQHMGHRAMYWYKQKAKKPPELMFVYSYEKLSINESVPSRFSPECPNSSLLNLHLHALQPEDSALYLCASSHGPASYEQYFGPGTRLTVT |  | binding result [1]: recognises
APAPTAVVL (Bob1-derived peptide from the HLA elution set) [BOB144 peptide APAPTAVVL] | binds | 
APARPYQGV (Bob1-derived peptide from the HLA elution set) [BOB114 peptide APARPYQGV] | binds | 
TCR of T cell clone 3C10 (TCR, V domains shown) Valpha: GENVEQHPSTLSVQEGDSAVIKCTYSDSASNYFPWYKQELGKGPQLIIDIRSNVGEKKDQRIAVTLNKTAKHFSLHITETQPEDSAVYFCAASTGGGYSTLTFGKGTMLLVSP Vbeta: DAGVIQSPRHEVTEMGQEVTLRCKPISGHDYLFWYRQTMMRGLELLIYFNNNVPIDDSGMPEDRFSAKMPNASFSTLKIQPSEPRDSAVYFCASSGQGITLAGANVLTFGAGSRLTVL |  | binding result [2]: recognises
YALNHTLSV (Bob1-derived peptide from the HLA elution set) [BOB1245 peptide YALNHTLSV] |  | binding result (HLA-A*0201): binds
APALPGPQF (Bob1-derived peptide from the HLA elution set) [BOB1197 peptide APALPGPQF] | binds | 
